Laboratory results: the supplement of paper PMC5998384

What was measured:
[1] = test system: HeLa Kyoto; test: melting temperature (median over replicates), in situ; higher = more thermally stable
[2] = test system: HeLa Kyoto; test: solubility in G1/S (NP-40 vs SDS abundance) (log2 ratio); higher = more soluble; conditions: cell cycle stage: G1/S
[3] = test system: HeLa Kyoto; test: thermal stability score vs G1/S (z-score of summed log2 fold changes over temperatures); higher = more thermally stable than in G1/S
[4] = test system: HeLa Kyoto; test: solubility change mitosis vs G1/S (difference of NP-40 vs SDS log2 ratios) (log2 ratio difference); higher = more soluble in mitosis
[5] = cell cycle stage: early G1 (4.5 h after nocodazole release)
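Throughout, for melting temperature (median over replicates), in situ: HeLa Kyoto cells synchronized by double thymidine or nocodazole block, proteins quantified by TMT10plex mass spectrometry, three independent biological replicates.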
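Throughout, for solubility change mitosis vs G1/S (difference of NP-40 vs SDS log2 ratios): synchronized HeLa Kyoto cells (double thymidine block for G1/S, nocodazole release for mitosis), protein amounts in NP-40 versus SDS lysates quantified by mass spectrometry, three biological replicates.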
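Throughout, for solubility in G1/S (NP-40 vs SDS abundance): HeLa Kyoto cells arrested at G1/S by double thymidine block, proteins quantified by TMT10plex mass spectrometry in mild NP-40 versus SDS extracts, three biological replicates.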
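Throughout, for thermal stability score vs G1/S (z-score of summed log2 fold changes over temperatures): synchronized HeLa Kyoto cells, proteins quantified by TMT10plex mass spectrometry, three biological replicates, mitosis taken 0.5 h after nocodazole release, G1/S directly after double thymidine block.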

Sequence | melting temperature ([1]; cell cycle stage: G1/S) | melting temperature ([1]; cell cycle stage: mitosis) | solubility in G1/S (log2) [2] | thermal stability score [3, 5] | thermal stability score ([3]; cell cycle stage: mitosis) | solubility change mitosis (log2) [4]
MESRDPAQPMSPGEATQSGARPADRYGLLKHSREFLDFFWDIAKPEQETRLAATEKLLEYLRGRPKGSEMKYALKRLITGLGVGRETARPCYSLALAQLLQSFEDLPLCSILQQIQEKYDLHQVKKAMLRPALFANLFGVLALFQSGRLVKDQEALMKSVKLLQALAQYQNHLQEQPRKALVDILSEVSKATLQEILPEVLKADLNIILSSPEQLELFLLAQQKVPSKLKKLVGSVNLFSDENVPRLVNVLKMAASSVKKDRKLPAIALDLLRLALKEDKFPRFWKEVVEQGLLKMQFWPASYLCFRLLGAALPLLTKEQLHLVMQGDVIRHYGEHVCTAKLPKQFKFAPEMDDYVGTFLEGCQDDPERQLAVLVAFSSVTNQGLPVTPTFWRVVRFLSPPALQGYVAWLRAMFLQPDLDSLVDFSTNNQKKAQDSSLHMPERAVFRLRKWIIFRLVSIVDSLHLEMEEALTEQVARFCLFHSFFVTKKPTSQIPETKHPFSFPLENQAREAVSSAFFSLLQTLSTQFKQAPGQTQGGQPWTYHLVQFADLLLNHSHNVTTVTPFTAQQRQAWDRMLQTLKELEAHSAEARAAAFQHLLLLVGIHLLKSPAESCDLLGDIQTCIRKSLGEKPRRSRTKTIDPQEPPWVEVLVEILLALLAQPSHLMRQVARSVFGHICSHLTPRALQLILDVLNPETSEDENDRVVVTDDSDERRLKGAEDKSEEGEDNRSSESEEESEGEESEEEERDGDVDQGFREQLMTVLQAGKALGGEDSENEEELGDEAMMALDQSLASLFAEQKLRIQARRDEKNKLQKEKALRRDFQIRVLDLVEVLVTKQPENALVLELLEPLLSIIRRSLRSSSSKQEQDLLHKTARIFTHHLCRARRYCHDLGERAGALHAQVERLVQQAGRQPDSPTALYHFNASLYLLRVLKGNTAEGCVHETQEKQKAGTDPSHMPTGPQAASCLDLNLVTRVYSTALSSFLTKRNSPLTVPMFLSLFSRHPVLCQSLLPILVQHITGPVRPRHQACLLLQKTLSMREVRSCFEDPEWKQLMGQVLAKVTENLRVLGEAQTKAQHQQALSSLELLNVLFRTCKHEKLTLDLTVLLGVLQGQQQSLQQGAHSTGSSRLHDLYWQAMKTLGVQRPKLEKKDAKEIPSATQSPISKKRKKKGFLPETKKRKKRKSEDGTPAEDGTPAATGGSQPPSMGRKKRNRTKAKVPAQANGTPTTKSPAPGAPTRSPSTPAKSPKLQKKNQKPSQVNGAPGSPTEPAGQKQHQKALPKKGVLGKSPLSALARKKARLSLVIRSPSLLQSGAKKKAQVRKAGKP [MYBBP1A] | 48.1 °C | 48.9 °C | -0.42 | 0.7 | 2.36 | 0.349
MAEAEEQETGSLEESTDESEEEESEEEPKLKYERLSNGVTEILQKDAASCMTVHDKFLALGTHYGKVYLLDVQGNITQKFDVSPVKINQISLDESGEHMGVCSEDGKVQVFGLYSGEEFHETFDCPIKIIAVHPHFVRSSCKQFVTGGKKLLLFERSWMNRWKSAVLHEGEGNIRSVKWRGHLIAWANNMGVKIFDIISKQRITNVPRDDISLRPDMYPCSLCWKDNVTLIIGWGTSVKVCSVKERHASEMRDLPSRYVEIVSQFETEFYISGLAPLCDQLVVLSYVKEISEKTEREYCARPRLDIIQPLSETCEEISSDALTVRGFQENECRDYHLEYSEGESLFYIVSPRDVVVAKERDQDDHIDWLLEKKKYEEALMAAEISQKNIKRHKILDIGLAYINHLVERGDYDIAARKCQKILGKNAALWEYEVYKFKEIGQLKAISPYLPRGDPVLKPLIYEMILHEFLESDYEGFATLIREWPGDLYNNSVIVQAVRDHLKKDSQNKTLLKTLAELYTYDKNYGNALEIYLTLRHKDVFQLIHKHNLFSSIKDKIVLLMDFDSEKAVDMLLDNEDKISIKKVVEELEDRPELQHVYLHKLFKRDHHKGQRYHEKQISLYAEYDRPNLLPFLRDSTHCPLEKALEICQQRNFVEETVYLLSRMGNSRSALKMIMEELHDVDKAIEFAKEQDDGELWEDLILYSIDKPPFITGLLNNIGTHVDPILLIHRIKEGMEIPNLRDSLVKILQDYNLQILLREGCKKILVADSLSLLKKMHRTQMKGVLVDEENICESCLSPILPSDAAKPFSVVVFHCRHMFHKECLPMPSMNSAAQFCNICSAKNRGPGSAILEMKK [VPS41] | 50.2 °C | 49.8 °C | -0.0889 | 0.549 | 0.342 | -0.131
MGGVGEPGPREGPAQPGAPLPTFCWEQIRAHDQPGDKWLVIERRVYDISRWAQRHPGGSRLIGHHGAEDATDAFRAFHQDLNFVRKFLQPLLIGELAPEEPSQDGPLNAQLVEDFRALHQAAEDMKLFDASPTFFAFLLGHILAMEVLAWLLIYLLGPGWVPSALAAFILAISQAQSWCLQHDLGHASIFKKSWWNHVAQKFVMGQLKGFSAHWWNFRHFQHHAKPNIFHKDPDVTVAPVFLLGESSVEYGKKKRRYLPYNQQHLYFFLIGPPLLTLVNFEVENLAYMLVCMQWADLLWAASFYARFFLSYLPFYGVPGVLLFFVAVRVLESHWFVWITQMNHIPKEIGHEKHRDWVSSQLAATCNVEPSLFTNWFSGHLNFQIEHHLFPRMPRHNYSRVAPLVKSLCAKHGLSYEVKPFLTALVDIVRSLKKSGDIWLDAYLHQ [FADS3] | 54.5 °C | 53.9 °C | -0.263 | -1.31 | -0.774 | 0.0263
MPGVIPSESNGLSRGSPSKKNRLSLKFFQKKETKRALDFTDSQENEEKASEYRASEIDQVVPAAQSSPINCEKRENLLPFVGLNNLGNTCYLNSILQVLYFCPGFKSGVKHLFNIISRKKEALKDEANQKDKGNCKEDSLASYELICSLQSLIISVEQLQASFLLNPEKYTDELATQPRRLLNTLRELNPMYEGYLQHDAQEVLQCILGNIQETCQLLKKEEVKNVAELPTKVEEIPHPKEEMNGINSIEMDSMRHSEDFKEKLPKGNGKRKSDTEFGNMKKKVKLSKEHQSLEENQRQTRSKRKATSDTLESPPKIIPKYISENESPRPSQKKSRVKINWLKSATKQPSILSKFCSLGKITTNQGVKGQSKENECDPEEDLGKCESDNTTNGCGLESPGNTVTPVNVNEVKPINKGEEQIGFELVEKLFQGQLVLRTRCLECESLTERREDFQDISVPVQEDELSKVEESSEISPEPKTEMKTLRWAISQFASVERIVGEDKYFCENCHHYTEAERSLLFDKMPEVITIHLKCFAASGLEFDCYGGGLSKINTPLLTPLKLSLEEWSTKPTNDSYGLFAVVMHSGITISSGHYTASVKVTDLNSLELDKGNFVVDQMCEIGKPEPLNEEEARGVVENYNDEEVSIRVGGNTQPSKVLNKKNVEAIGLLGGQKSKADYELYNKASNPDKVASTAFAENRNSETSDTTGTHESDRNKESSDQTGINISGFENKISYVVQSLKEYEGKWLLFDDSEVKVTEEKDFLNSLSPSTSPTSTPYLLFYKKL [USP1] | 48.8 °C | – | -0.118 | 0.238 | 1.6 | -0.0658
MAQFDTEYQRLEASYSDSPPGEEDLLVHVAEGSKSPWHHIENLDLFFSRVYNLHQKNGFTCMLIGEIFELMQFLFVVAFTTFLVSCVDYDILFANKMVNHSLHPTEPVKVTLPDAFLPAQVCSARIQENGSLITILVIAGVFWIHRLIKFIYNICCYWEIHSFYLHALRIPMSALPYCTWQEVQARIVQTQKEHQICIHKRELTELDIYHRILRFQNYMVALVNKSLLPLRFRLPGLGEAVFFTRGLKYNFELILFWGPGSLFLNEWSLKAEYKRGGQRLELAQRLSNRILWIGIANFLLCPLILIWQILYAFFSYAEVLKREPGALGARCWSLYGRCYLRHFNELEHELQSRLNRGYKPASKYMNCFLSPLLTLLAKNGAFFAGSILAVLIALTIYDEDVLAVEHVLTTVTLLGVTVTVCRSFIPDQHMVFCPEQLLRVILAHIHYMPDHWQGNAHRSQTRDEFAQLFQYKAVFILEELLSPIVTPLILIFCLRPRALEIIDFFRNFTVEVVGVGDTCSFAQMDVRQHGHPQWLSAGQTEASVYQQAEDGKTELSLMHFAITNPGWQPPRESTAFLGFLKEQVQRDGAAASLAQGGLLPENALFTSIQSLQSESEPLSLIANVVAGSSCRGPPLPRDLQGSRHRAEVASALRSFSPLQPGQAPTGRAHSTMTGSGVDARTASSGSSVWEGQLQSLVLSEYASTEMSLHALYMHQLHKQQAQAEPERHVWHRRESDESGESAPDEGGEGARAPQSIPRSASYPCAAPRPGAPETTALHGGFQRRYGGITDPGTVPRVPSHFSRLPLGGWAEDGQSASRHPEPVPEEGSEDELPPQVHKV [ATG9A] | 52 °C | 51.8 °C | 0.0202 | -1.02 | -0.681 | -0.221
